This is an account of results in patent US7067495.

This test has as its target human IL-8 in L-CMV melanoma cell conditioned medium (human) (UniProt P10145). As to the kind of experiment: cell-based or functional assay.
Sequence of UniProt P10145 (P10145 23-99 limits assumed): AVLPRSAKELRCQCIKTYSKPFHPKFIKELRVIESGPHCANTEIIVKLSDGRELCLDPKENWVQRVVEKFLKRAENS

As to “mouse anti-hIL-8 mAb (6214.11, R&D Systems) (antibody)”, the inhibition of PMNLs chemotaxis induced by L-CMV CCM worked out at 30%.
